Target: the molecule itself
Experiment: BASIL (Bead Assay of Interacting Ligands); biotinylated oligonucleotide with a single NANOG site on streptavidin beads, incubated with rNANOG at 1mg/ml for 1 hour, washed, then with fluorescein amidite labelled oligonucleotide of the same sequence; fluorescence on the bead only if NANOG is a multimer

B1: Recombinant full length NANOG, purified and refolded (natural protein, mouse, UniProt Q80Z64 1-305, looked up)
chain: MSVGLPGPHSLPSSEEASNSGNASSMPAVFHPENYSCLQGSATEMLCTEAASPRPSSEDLPLQGSPDSSTSPKQKLSSPEADKGPEEEENKVLARKQKMRTVFSQAQLCALKDRFQKQKYLSLQQMQELSSILNLSYKQVKTWFQNQRMKCKRWQKNQWLKTSNGLIQKGSAPVEYPSIHCSYPQGYLVNASGSLSMWGSQTWTNPTWSSQTWTNPTWNNQTWTNPTWSSQAWTAQSWNGQPWNAAPLHNFGEDFLQPYVQLQQNFSASDLEVNLEATRESHAHFSTPQALELFLNYSVTPPGEI
notes: NANOG, mouse, full length; Forms multimers by the BASIL assay; the size of the oligomer is not measured here; also called purified NANOG; rNANOG
binding result: binds

— paper doi:10.1101/2025.11.27.690710, “Direct recruitment of RNA Polymerase II by NANOG to activated target genes” (bioRxiv, 2025)
